Experiments:
APUM23Delete = target: T1, APUM23Delete (Arabidopsis thaliana, UniProt Q9C552 85-655, del235-270); assay: X-ray crystallography
T1 sequence: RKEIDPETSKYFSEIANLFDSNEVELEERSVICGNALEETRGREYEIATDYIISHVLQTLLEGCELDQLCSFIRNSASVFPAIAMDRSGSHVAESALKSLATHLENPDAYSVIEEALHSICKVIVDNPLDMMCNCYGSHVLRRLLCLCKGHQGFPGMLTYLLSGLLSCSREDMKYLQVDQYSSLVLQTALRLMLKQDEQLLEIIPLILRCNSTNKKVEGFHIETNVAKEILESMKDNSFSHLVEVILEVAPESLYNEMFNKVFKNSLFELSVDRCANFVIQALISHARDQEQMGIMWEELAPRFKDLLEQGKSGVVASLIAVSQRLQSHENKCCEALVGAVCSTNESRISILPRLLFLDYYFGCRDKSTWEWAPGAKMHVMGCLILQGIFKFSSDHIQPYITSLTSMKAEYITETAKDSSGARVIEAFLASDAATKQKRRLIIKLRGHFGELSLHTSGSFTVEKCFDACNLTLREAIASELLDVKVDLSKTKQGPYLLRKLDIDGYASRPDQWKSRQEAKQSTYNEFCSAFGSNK

APUM23 85-655 (WT) = target: T2, APUM23 85-655 (WT) (Arabidopsis thaliana, UniProt Q9C552 85-655); assay: X-ray crystallography
T2 sequence: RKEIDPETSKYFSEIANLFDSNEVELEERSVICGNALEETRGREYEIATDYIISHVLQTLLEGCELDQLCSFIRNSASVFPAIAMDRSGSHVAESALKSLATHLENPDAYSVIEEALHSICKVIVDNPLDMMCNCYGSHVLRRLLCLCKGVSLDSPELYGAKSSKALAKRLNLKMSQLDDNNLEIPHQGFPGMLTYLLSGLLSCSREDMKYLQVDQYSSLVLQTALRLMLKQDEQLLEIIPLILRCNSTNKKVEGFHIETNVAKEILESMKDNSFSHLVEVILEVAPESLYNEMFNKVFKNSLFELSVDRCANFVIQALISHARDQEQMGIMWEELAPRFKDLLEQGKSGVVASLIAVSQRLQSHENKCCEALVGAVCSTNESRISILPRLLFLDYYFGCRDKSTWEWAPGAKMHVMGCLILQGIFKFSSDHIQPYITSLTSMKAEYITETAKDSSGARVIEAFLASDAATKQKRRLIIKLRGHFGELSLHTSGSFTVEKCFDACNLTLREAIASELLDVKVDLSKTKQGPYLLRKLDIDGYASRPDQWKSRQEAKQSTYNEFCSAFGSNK

Binder: GGAAUUGACGG (ssRNA) [11-mer WT RNA (18S rRNA 1141-1151)]
- binding result (APUM23Delete): binds

Binder: GGAGUUGACGG (ssRNA) [11-mer A+3G RNA]
- binding result (APUM23 85-655 (WT)): binds
